# Reference: patent publication US20190077860A1 (EISAI R AND D MANAGEMENT, published 2019)
# Residue numbers refer to the chain shown, from its start. Names and notes keep the numbering of the source.
# T1: human EphA8 extracellular region-SEAP-His protein (human, UniProt P29322 28-542)
# T1 construct: extracellular domain; also called hEphA8-SEAP-His
# T1 sequence (looked up): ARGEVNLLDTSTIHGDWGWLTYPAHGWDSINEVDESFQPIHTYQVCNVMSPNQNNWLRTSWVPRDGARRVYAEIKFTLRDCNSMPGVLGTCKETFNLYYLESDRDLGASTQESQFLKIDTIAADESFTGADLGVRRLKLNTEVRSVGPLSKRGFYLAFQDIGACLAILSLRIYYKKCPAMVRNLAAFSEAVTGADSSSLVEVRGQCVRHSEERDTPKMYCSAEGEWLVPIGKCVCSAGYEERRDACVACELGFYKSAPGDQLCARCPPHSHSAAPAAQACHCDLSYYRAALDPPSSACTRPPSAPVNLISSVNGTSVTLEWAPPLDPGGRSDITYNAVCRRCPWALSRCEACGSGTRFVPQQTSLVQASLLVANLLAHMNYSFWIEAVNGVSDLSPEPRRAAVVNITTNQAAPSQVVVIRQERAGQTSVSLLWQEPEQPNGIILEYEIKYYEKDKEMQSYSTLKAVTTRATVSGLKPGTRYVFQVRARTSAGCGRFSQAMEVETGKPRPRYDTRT
# B1: humanized antibody No. 76 (antibody, human IgG1, kappa)
# heavy: QVQLVQSGSELKKPGASVKVSCKASGYTFTDYSMHWVRQAPGQGLKWMGWINTETGEPTYAQGFTGRFVFSLDTSVSTAYLQISSLKAEDTAVYYCARIPLYYYGSRYWYFDVWGQGTTVTVSSASTKGPSVFPLAPSSKSTSGGTAALGCLVKDYFPEPVTVSWNSGALTSGVHTFPAVLQSSGLYSLSSVVTVPSSSLGTQTYICNVNHKPSNTKVDKRVEPKSCDKTHTCPPCPAPPAAAPSVFLFPPKPKDTLMISRTPEVTCVVVDVSHEDPEVQFNWYVDGVEVHNAKTKPREEQFNSTFRVVSVLTVVHQDWLNGKEYKCKVSNKGLPAPIEKTISKTKGQPREPQVYTLPPSREEMTKNQVSLTCLVKGFYPSDIAVEWESNGQPENNYKTTPPMLDSDGSFFLYSKLTVDKSRWQQGNVFSCSVMHEALHNHYTQKSLSLSPG
# light: DIQMTQSPSSLSASVGDRVTITCRASENIYRNLAWYQQKPGKAPKLLVYAATNLADGVPSRFSGSGSGTDYTLTISSLQPEDFATYYCQHFWGTPWTFGQGTKVEIKRTVAAPSVFIFPPSDEQLKSGTASVVCLLNNFYPREAKVQWKVDNALQSGNSQESVTEQDSKDSTYSLSSTLTLSKADYEKHKVYACEVTHQGLSSPVTKSFNRGEC
# notes: human Ig kappa; also called L1-4/HA2
# B2: humanized antibody No. 78 (antibody, human IgG1, kappa)
# heavy: B1 heavy with Q62D, G63D, T65K
# light: B1 light
# notes: human Ig kappa; also called L1-4/HK2
# B3: humanized antibody No. 82 (antibody, human IgG1, kappa)
# heavy: B1 heavy
# light: B1 light with V48L, P80S
# notes: human Ig kappa; also called L1-5/HA2
# B4: humanized antibody No. 67 (antibody, human IgG1, kappa)
# heavy: B1 heavy with V2I
# light: B1 light
# notes: human Ig kappa; also called L1-4/HA4
# B5: humanized antibody No. 81 (antibody, human IgG1, kappa)
# heavy: B1 heavy with K46E
# light: B1 light with V48L, P80S
# notes: human Ig kappa; also called L1-5/HA1
# B6: humanized antibody No. 77 (antibody, human IgG1, kappa)
# heavy: B1 heavy with K46E, Q62D, G63D, T65K
# light: B1 light
# notes: human Ig kappa; also called L1-4/HK1
# B7: humanized antibody No. 84 (antibody, human IgG1, kappa)
# heavy: B1 heavy with K46E, Q62D, G63D, T65K
# light: B1 light with V48L, P80S
# notes: human Ig kappa; also called L1-5/HK1
# B8: humanized antibody No. 83 (antibody, human IgG1, kappa)
# heavy: B1 heavy with V2I
# light: B1 light with V48L, P80S
# notes: human Ig kappa; also called L1-5/HA4
# B9: humanized antibody No. 75 (antibody, human IgG1, kappa)
# heavy: B1 heavy with K46E
# light: B1 light
# notes: constant region: human IgG1 CH1 and hinge, human IgG2 CH2 and CH3 with V234A, G237A, no C-terminal Lys; human Ig kappa; also called L1-4/HA1
# B10: humanized antibody No. 69 (antibody, human IgG1, kappa)
# heavy: B1 heavy with V2I, Q62D, G63D, T65K
# light: B1 light
# notes: human Ig kappa; also called L1-4/HK4
# B11: antibody A (antibody, mouse IgG1, kappa, V domains shown)
# VH: QIQLVQSGPELKKPGETVKISCKASGYTFTDYSMHWVKQAPGKGLKWMGWINTETGEPTYADDFKGRFAFSLETSASTAYLQINNLKNEDTATYFCARIPLYYYGSRYWYFDVWGAGTTVTVSS
# VL: DIQMTQSPASLSVSVGETVTITCRASENIYRNLAWYQQKQGKSPQLLVYAATNLADGVPSRFSGSGSGTQYSLKINSLQSEDFGSYYCQHFWGTPWTFGGGTKLEIKR
# notes: mouse IgG1 heavy chain, kappa light chain; purified from hybridoma supernatant; also called anti-EphA4 monoclonal antibody; antibody A-IgG
# Columns and labels:
# [1] = biological target: T2, human EphA4 extracellular region-SEAP-His protein (human, UniProt P54764 20-547); experiment: ELISA
# T2 construct: also called hEphA4-SEAP-His
# Protocol: (§1) Each well of a 96-well plate (Nunc) was coated with a rabbit anti-6-His antibody (Bethyl Laboratories). Each well was […] After washing with 0.05% Tween 20/PBS (Nacalai Tesque) three times, the SEAP-His protein of human EphA1, EphA2, EphA3, EphA4, EphA5, EphA6, EphA7, EphA8, EphA10, EphB1, EphB2, EphB3, EphB4, or EphB6 was added (final concentration: 1 nM) to each well and incubated at room temperature for 1 hour. After washing three times, the humanized antibody was added to each well and incubated at room temperature for 1 hour. After washing three times, a horseradish peroxidase-labeled donkey […] antibody (Jackson ImmunoResearch Laboratories) was added thereto and incubated at room temperature for 1 hour. After washing three times, TMB Microwell Peroxidase Substrate System (Kirkegaard & Perry Laboratories (KPL)) was added to each well. After confirmation of moderate color development, an equal amount of a reaction stopping solution (1N H₂SO₄, Wako Pure Chemical Industries) was added to each well. The absorbance at 450 nm was read using a microplate reader (Thermo Fisher Scientific).
# [2] = biological target: T1, human EphA8 extracellular …; experiment: ELISA
# Protocol: as §1
# [3] = biological target: T2, human EphA4 extracellular …; experiment: competition ELISA, competitor human Ephrin A5-Fc
# Protocol: Each anti-EphA4 monoclonal humanized antibody obtained in Example 16 was evaluated for its inhibitory activity against the binding between human EphA4 and its human ligand according to the following steps. Each well of a 96-well plate (Nunc) was coated with an anti-alkaline phosphatase antibody (Thermo Fisher Scientific). After incubation overnight at 4° C., each well was blocked with 1% BlockAce (DS Pharma Biomedical) at room temperature for 1 hour. After washing with 0.05% Tween 20/PBS (Thermo Fisher Scientific) three times, the human EphA4 extracellular region-SEAP-His protein obtained by the method of Example 2 was added (final concentration: 10 nM) to each well and incubated at room temperature for 1 hour. After washing three times, a ligand and each serially diluted humanized antibody of antibody A (0, 0.003, 0.01, 0.03, 0.1, 0.3, 1, 3, 10, 30, 100, 300, 1000, and 3000 nM) were added to each well. The ligand used was biotinylated human Ephrin A5-Fc chimera (R&D Systems, final concentration: 0.7 nM). After incubation at room temperature for 1 hour and subsequent washing three times, horseradish peroxidase-labeled streptavidin (GE Healthcare) was added thereto and incubated at room temperature for 1 hour. After washing three times, a TMBZ (3,3′,5,5′-tetramethylbenzidine, Sigma-Aldrich) solution was added to each well and incubated at room temperature for 2 minutes. An equal amount of a reaction stopping solution (1N H₂SO₄, Wako Pure Chemical Industries) was added to each well. The absorbance at 450 nm was read using a microplate reader (PerkinElmer).
# [4] = biological target: T2, human EphA4 extracellular …; experiment: SPR, Ab captured
# Protocol: The binding affinity of each anti-EphA4 monoclonal humanized antibody obtained in Example 16 for human EphA4 was determined by surface plasmon resonance (SPR) using Biacore T200 (GE Healthcare). First, for the assay of antibody A, a rat anti-mouse IgG₁ antibody produced with a conventional method by immunizing rat with mouse IgG₁ antibody was immobilized on sensor chip CM5. The immobilization of the rat anti-mouse IgG1 antibody on sensor chip CM5 was performed by the amine coupling method using N-hydroxysuccinimide (NHS) and N-ethyl-N′-(3-dimethylaminopropyl)carbodiimide hydrochloride (EDC). Ethanolamine was used in blocking (the sensor chip and the reagents for immobilization were all manufactured by GE Healthcare). The antibody was diluted with a buffer solution for immobilization (10 mM sodium acetate, pH 4.5) and immobilized on the sensor chip according to the protocol attached to Biacore T200. For the assay of each humanized monoclonal antibody, a protein A chip (GE Healthcare, 29-1383-03) was used. Antibody A or the humanized monoclonal antibody was diluted with a running buffer solution HBS-EP (GE Healthcare), injected onto only flow cell 2 for 120 seconds, and captured (captured amount: approximately 30 to 60 RU). Subsequently, human EphA4 extracellular region-SEAP-His protein serially diluted in the range of 50, 16.7, 5.6, 1.9, and 0.6 nM using HBS-EP was sequentially added from the lower toward higher concentration sides without regeneration operation. Binding reaction curves were sequentially observed at the time of the addition (association phase, for 120 sec) and after the completion of the addition (dissociation phase, for 900 sec). After the completion of each observation, the sensor chip was regenerated by the addition of 3 M MgCl₂ (for 60 sec) or 10 mM Glycine-HCl pH 1.5 (for 30 sec). The obtained binding reaction curves were subjected to fitting analysis with 1:1 binding models using software BIA evaluation attached to the system to calculate the affinity (KD=kd/ka) for human EphA4 (Table 6).
# T2 sequence (P54764 20-547): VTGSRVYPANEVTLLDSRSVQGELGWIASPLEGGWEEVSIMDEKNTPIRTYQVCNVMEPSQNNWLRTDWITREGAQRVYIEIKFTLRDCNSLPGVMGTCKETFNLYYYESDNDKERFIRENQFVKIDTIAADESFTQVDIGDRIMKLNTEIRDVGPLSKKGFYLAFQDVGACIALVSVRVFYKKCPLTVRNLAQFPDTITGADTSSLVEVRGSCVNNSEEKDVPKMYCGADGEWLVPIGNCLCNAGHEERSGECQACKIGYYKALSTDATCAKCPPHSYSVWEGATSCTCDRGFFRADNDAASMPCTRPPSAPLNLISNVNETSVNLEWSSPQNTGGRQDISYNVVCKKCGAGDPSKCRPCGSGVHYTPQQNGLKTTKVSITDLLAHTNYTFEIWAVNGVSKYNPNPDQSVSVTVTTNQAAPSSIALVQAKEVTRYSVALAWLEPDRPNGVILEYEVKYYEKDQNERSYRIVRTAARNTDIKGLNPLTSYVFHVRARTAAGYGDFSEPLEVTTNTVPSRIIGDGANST
binder,measurement,setting,value
B1,A450 as % of hEphA4-SEAP-His,[1],100%
same,A450 as % of hEphA4-SEAP-His,[2],5.5%
same,IC50,[3],2.9 nM
same,Kd,[4],1 nM
same,koff,[4],0.00034 s⁻¹
same,kon,[4],330000 M⁻¹ s⁻¹
B2,A450 as % of hEphA4-SEAP-His,[1],100%
same,A450 as % of hEphA4-SEAP-His,[2],5.4%
same,IC50,[3],2.8 nM
same,Kd,[4],1.1 nM
same,koff,[4],0.00039 s⁻¹
same,kon,[4],340000 M⁻¹ s⁻¹
B3,A450 as % of hEphA4-SEAP-His,[1],100%
same,A450 as % of hEphA4-SEAP-His,[2],5.8%
same,IC50,[3],4.1 nM
same,Kd,[4],1.6 nM
same,koff,[4],0.00046 s⁻¹
same,kon,[4],290000 M⁻¹ s⁻¹
B4,A450 as % of hEphA4-SEAP-His,[1],100%
same,A450 as % of hEphA4-SEAP-His,[2],4.7%
same,IC50,[3],4.4 nM
same,Kd,[4],1.1 nM
same,koff,[4],0.00035 s⁻¹
same,kon,[4],330000 M⁻¹ s⁻¹
B5,A450 as % of hEphA4-SEAP-His,[1],100%
same,A450 as % of hEphA4-SEAP-His,[2],5.2%
same,IC50,[3],4 nM
same,Kd,[4],1.6 nM
same,koff,[4],0.00054 s⁻¹
same,kon,[4],340000 M⁻¹ s⁻¹
B6,A450 as % of hEphA4-SEAP-His,[1],100%
same,A450 as % of hEphA4-SEAP-His,[2],4.8%
same,IC50,[3],3.5 nM
same,Kd,[4],1.4 nM
same,koff,[4],0.00058 s⁻¹
same,kon,[4],410000 M⁻¹ s⁻¹
B7,A450 as % of hEphA4-SEAP-His,[1],100%
same,A450 as % of hEphA4-SEAP-His,[2],5.3%
same,IC50,[3],4.6 nM
same,Kd,[4],1.7 nM
same,koff,[4],0.00056 s⁻¹
same,kon,[4],350000 M⁻¹ s⁻¹
B8,A450 as % of hEphA4-SEAP-His,[1],100%
same,A450 as % of hEphA4-SEAP-His,[2],6%
same,IC50,[3],3.7 nM
same,Kd,[4],1.9 nM
same,koff,[4],0.00054 s⁻¹
same,kon,[4],290000 M⁻¹ s⁻¹
B9,A450 as % of hEphA4-SEAP-His,[1],100%
same,A450 as % of hEphA4-SEAP-His,[2],4.8%
same,IC50,[3],2.9 nM
same,Kd,[4],1.2 nM
same,koff,[4],0.00042 s⁻¹
same,kon,[4],380000 M⁻¹ s⁻¹
B10,A450 as % of hEphA4-SEAP-His,[1],100%
same,A450 as % of hEphA4-SEAP-His,[2],5.5%
same,IC50,[3],3.1 nM
same,Kd,[4],1.1 nM
same,koff,[4],0.00037 s⁻¹
same,kon,[4],340000 M⁻¹ s⁻¹
B11,Kd,[4],0.6 nM
same,koff,[4],0.00025 s⁻¹
same,kon,[4],420000 M⁻¹ s⁻¹
